As a reminder, the EC50 is the midpoint of the concentration-response curve. A higher EC50 goes with lower potency in that assay.

This note sets out measurements from patent publication US20230416347A1 (UNIVERSITY OF TENNESSEE RESEARCH FOUNDATION, published 2023).

For experiment [1], the target named is α-synuclein synthetic amyloid-like fibrils (UniProt P37840 1-140). Nature of the experiment: plate assay, time-resolved fluorescence (anti-human Fc, streptavidin-europium), 4PL fit.
Method: (§1) The mean and standard deviation (SD) of three replicates were calculated and the potency (EC50) was determined following fitting with a sigmoidal four parameter logistic (4PL) equation with logarithmic x-axis (Prism) (FIG. 14). A non-reactive hIgG1 was used as a negative control in a parallel assay (FIG. 13B).
Experiment [2] addresses Tau 441 synthetic amyloid-like fibrils (UniProt P10636-8 1-441). Described as above.
Method: as §1
The target of experiment [3] is T1, rVλ6Wil fibrils.
T1 construct: domain: λ6 variable domain; Synthetic amyloid-like fibrils; also called rVλWIL; rVλ6Wil synthetic fibrils
Briefly: EuLISA on rVλ6Wil fibrils (FIG. 5B).

In experiment [4] the target is T1, rVλ6Wil fibrils. Briefly: EuLISA.
In experiment [5] the target is T2, SHI ALλ liver extract.
T2 construct: Human AL amyloid extract; also called ALλ (SHI); ALλ SHI extract
Briefly: EuLISA.

For experiment [6], the target named is T3, TAL ALκ liver extract.
T3 construct: Human AL amyloid extract; also called ALκ (TAL); ALκ TAL
Nature of the experiment: EuLISA.

The target of experiment [7] is Per125 wtATTR extract (human, UniProt P02766 21-147). Briefly: EuLISA.
Experiment [8] addresses T1, rVλ6Wil fibrils. Nature of the experiment: EuLISA on rVλ6Wil fibrils (FIG. 5A).

Chain of Tau 441 synthetic amyloid-like fibrils (P10636 other isoform, or with tags, fused parts or gaps limits assumed): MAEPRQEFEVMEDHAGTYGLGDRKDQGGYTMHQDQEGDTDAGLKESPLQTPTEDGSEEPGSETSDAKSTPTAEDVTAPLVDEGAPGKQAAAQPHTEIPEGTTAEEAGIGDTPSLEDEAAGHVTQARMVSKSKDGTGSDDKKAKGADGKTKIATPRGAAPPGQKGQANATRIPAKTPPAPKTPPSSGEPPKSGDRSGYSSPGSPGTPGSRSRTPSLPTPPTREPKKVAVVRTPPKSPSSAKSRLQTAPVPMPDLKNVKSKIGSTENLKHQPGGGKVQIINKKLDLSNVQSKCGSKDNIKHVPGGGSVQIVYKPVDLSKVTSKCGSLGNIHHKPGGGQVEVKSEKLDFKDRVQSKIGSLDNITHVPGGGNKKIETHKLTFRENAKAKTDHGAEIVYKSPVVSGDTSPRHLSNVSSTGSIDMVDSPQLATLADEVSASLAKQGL

B1: PF.7 (VH9-D54E/VL4-N33S-VSPSV-p5R collected after 7 days of perfusion culturing) (antibody, human IgG1, kappa)
heavy: not shown
light: DVVMTQSPLSLPVTLGQPASISCRSSQSLVHRSGNTYLHWFQQRPGQSPRLLIYKVSNRFSGVPDRFSGSGSGTDFTLKISRVEAEDVGVYFCFQTTYVPNTFGGGTKLEIKRTVAAPSVFIFPPSDEQLKSGTASVVCLLNNFYPREAKVQWKVDNALQSGNSQESVTEQDSKDSTYSLSSTLTLSKADYEKHKVYACEVTHQGLSSPVTKSFNRGECVSPSVRAQRAQARQARQAQRAQRAQARQARQ
notes: Same construct as PF.1, perfusion culture for 7 days
In the case of B1, the EC50 in experiment [1] is 127 nM; in experiment [2], 1300 nM.

B2: chimeric antibody c11-1F4 (antibody, V domains shown)
VH: QVQLKESGPGLVAPSQSLSITCTVSGFSLSSYGVSWVRQPPGKGLEWLGVIWGDGSTNYHPNLMSRLSISKDISKSQVLFKLNSLQTDDTATYYCVTLDYWGQGTSVTVSS
VL: DVVMTQTPLSLPVSLGDQASISCRSSQSLVHRNGNTYLHWYLQKPGQSPKLLIYKVSNRFSGVPDRFSGSGSGTDFTLKISRVEAEDLGLYFCFQTTYVPNTFGGGTKLEIK
notes: Chimeric form of 11-1F4; also called ch11-1F4; chimeric (c) 11-1F4
In the case of B2, the EC50 in experiment [3] is around 100 nM; in experiment [4], 291 nM; in experiment [5] it was 256 nM; in experiment [7], 381 nM; in experiment [8], around 72 nM. Further, the LogEC50 in experiment [4] was 6.54 -log(M); in experiment [5] it was 6.59 -log(M); in experiment [6] it was ~0.599 -log(M); in experiment [7], 6.42 -log(M). The Max is 63.9 in experiment [4], 51.3 in experiment [5], around 17800 in experiment [6] and 71.1 in experiment [7].
